pEC50: −log10 of the molar value.
Assays:
[1] = molecular target: RBD of the SARS-CoV-2 Delta (B.1.617.2) strain (SARS-CoV-2, Delta (B.1.617.2) strain) (UniProt P0DTC2); test: ELISA
[2] = molecular target: S protein of the SARS-CoV-2 Omicron (B.1.1.529) strain, his-tagged (SARS-CoV-2, Omicron (B.1.1.529) strain) (UniProt P0DTC2); test: BLI

Substance	pEC50 [1]	fold lower ELISA EC50 than wild-type CR3022 [1] [fold]	fold increase in binding affinity (BLI) against wild-type CR3022 [2] [fold]
CR3022 SH100D+SH103Y+SL33R triple mutant (IgG1 format) (antibody)	10.22	3.4	4.1
CR3022 SH100D+SH103Y+IL34W triple mutant (IgG1 format) (antibody)	–	–	6.1
